Measured values taken from patent US20220381793A1, “COMPOSITIONS AND METHODS FOR IDENTIFYING MHC-II BINDING PEPTIDES” (priority 2021, published 2022).
Like-named read-outs stand apart in the source and are kept apart here. No end group written: not given here. Ahx = NCCCCCC(=O)O

Key:
[1] = biological target: T1, “empty” DR4-LZ (DRA*01:01/DRB1*04:01 ectodomains with Jun/Fos leucine zippers, non-covalent heterodimer displayed on yeast through Aga2p) (human)
[2] = biological target: T1, “empty” DR4-LZ (DRA*01:01/DRB1*04:01 …); remark: listed apart in the source
[3] = biological target: T2, “empty” DR4-LZ (DRA*01:01/DRB1*04:01 ectodomains with Jun/Fos leucine zippers, non-covalent heterodimer displayed on yeast through Aga2p); test: flow; conditions: chains peptide; modification not given
[4] = biological target: T3, “empty” DQ6-LZ (DQA1*01:02/DQB1*06:02 ectodomains with Fos/Jun leucine zippers, non-covalent heterodimer displayed on yeast through Aga2p); test: competition; conditions: chains peptide; modification not given
[5] = biological target: T2, “empty” DR4-LZ (DRA*01:01/DRB1*04:01 …); test: competition; conditions: chains peptide; modification not given
[6] = biological target: T3, “empty” DQ6-LZ (DQA1*01:02/DQB1*06:02 …); test: flow; conditions: chains peptide; modification not given

Binder: NRALTGIAVEQDKNTQE (modifications not checked) [S764-780, P0DTC2 764-780]
- % competition [1]: < 50%

Binder: HGVVFLHVTYVPAQEKN (modifications not checked) [S1058-1074, P0DTC2 1058-1074]
- % competition [2]: 75%

Binder: PKYVKQNTLKLAT [Bio-HA306-318 (biotin-Ahx-…)]
- Kd [3]: 33.2 µM

Binder: QASGNHAAGILTMGR [HCRT85-99, O43612 85-99]
- IC50 [4]: 25.2 µM

Binder: PKYVKQNTLKLAT [non-biotinylated HA306-318]
- IC50 [5]: 66.8 µM

Binder: MNLPSTKVSWAAVK-{Ahx-biotin} [HCRT1-13-Bio (…-Ahx-biotin)]
- Kd [6]: 12.5 µM
